From US20260258137A1 come the findings set out here.

The target of experiment [1] is human PD-L1 on CHO-K1 cells (CHO-K1/hPD-L1, Nanjing Genscript, M00543) (human) (UniProt Q9NZQ7). Kind of experiment: flow cytometry on CHO-K1/hPD-L1 cells.
The target of experiment [2] is cynomolgus PD-L1 on CHO-K1 cells (CHO-K1/cynoPD-L1, Nanjing Genscript, M00573) (cynomolgus) (UniProt G7PSE7). As to the kind of experiment: flow cytometry on CHO-K1/cynoPD-L1 cells. A general note: A flow cytometer gives signals particle by particle.
Sequence of cynomolgus PD-L1 on CHO-K1 cells (CHO-K1/cynoPD-L1, Nanjing Genscript, M00573) (cynomolgus) (G7PSE7 entry or part of it limits assumed, one chain of several): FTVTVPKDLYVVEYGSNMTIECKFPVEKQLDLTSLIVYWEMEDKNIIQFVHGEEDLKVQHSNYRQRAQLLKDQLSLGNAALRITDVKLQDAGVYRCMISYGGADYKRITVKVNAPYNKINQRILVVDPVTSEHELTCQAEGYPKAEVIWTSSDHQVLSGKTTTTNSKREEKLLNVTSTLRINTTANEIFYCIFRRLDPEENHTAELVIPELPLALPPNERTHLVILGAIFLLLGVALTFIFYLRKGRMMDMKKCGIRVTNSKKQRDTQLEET
In experiment [3] the target is human PD-L1 on CHO-K1 cells (CHO-K1/hPD-L1, Nanjing Genscript, M00543) (human) (UniProt Q9NZQ7). Kind of experiment: flow cytometry competition: biotin-hPD-1 binding to CHO-K1/hPD-L1 cells.

Sequence of human PD-L1 on CHO-K1 cells (CHO-K1/hPD-L1, Nanjing Genscript, M00543) (human) (Q9NZQ7 19-290, one chain of several): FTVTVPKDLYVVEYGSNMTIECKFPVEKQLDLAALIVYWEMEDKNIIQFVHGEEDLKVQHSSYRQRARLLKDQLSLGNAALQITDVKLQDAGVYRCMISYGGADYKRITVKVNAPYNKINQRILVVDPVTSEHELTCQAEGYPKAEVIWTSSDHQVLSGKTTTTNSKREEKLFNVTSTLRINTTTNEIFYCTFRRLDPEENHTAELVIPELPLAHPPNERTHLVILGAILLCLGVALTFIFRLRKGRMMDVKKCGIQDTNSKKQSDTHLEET

For isotype antibody hIgG1 iso, the MFI maximum value was 305 MFI in experiment [1] and 935 MFI in experiment [2]. This substance came in with a Maximum inhibition rate (%) in experiment [3] of 0.68%.
